Source: PMC2871789, “Characterization of the Interaction and Cross-Regulation of Three Mycobacterium tuberculosis RelBE Modules” (PLoS ONE, 2010)

Legend:
[1] = target: T1, GST-RelE (Rv1246c), purified (M. tuberculosis, UniProt O50461 1-97); experiment: pull-down; details: both partners purified
T1 construct: the methods state the opposite tagging; also called GST-tagged RelE; pGEX-1246c
T1 sequence: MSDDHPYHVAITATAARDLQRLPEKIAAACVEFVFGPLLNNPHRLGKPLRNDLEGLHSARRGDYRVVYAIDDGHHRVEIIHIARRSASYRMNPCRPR

[2] = target: T2, 6xHis-RelF (Rv2865), purified (M. tuberculosis, UniProt O33347 1-93); experiment: pull-down; details: both partners purified
T2 construct: also called his-tagged RelF; pET-2865; not shown: His6, N-terminal, kept
T2 sequence: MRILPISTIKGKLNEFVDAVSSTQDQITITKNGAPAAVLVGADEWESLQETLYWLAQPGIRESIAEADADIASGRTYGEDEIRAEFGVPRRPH

B1: 6xHis-RelB (Rv1247c), purified (natural protein)
chain: MAVVPLGEVRNRLSEYVAEVELTHERITITRHGHPAAVLISADDLASIEETLEVLRTPGASEAIREGLADVAAGRFVSNDEIRNRYTAR
notes: also called his-tagged RelB; histidine-tagged RelB; not shown: His6, N-terminal, kept
binding result [1]: binds

B2: GST-RelG (Rv2866), purified (natural protein)
chain: MPYTVRFTTTARRDLHKLPPRILAAVVEFAFGDLSREPLRVGKPLRRELAGTFSARRGTYRLLYRIDDEHTTVVILRVDHRADIYRR
notes: also called GST-tagged RelG; pGEX-2866
binding result [2]: binds
